Data from US20230357420A1 (VILLARIS THERAPEUTICS, published 2023).
Read-outs that look alike come from different tables or passages of the source.

How the values were obtained:
Rhesus CD122 [1] = target: T1, Rhesus CD122 (rhesus monkey, UniProt Q38J85 27-551 (cynomolgus entry)); test: flow cytometry (FACS) on rhIL15Rβ-transfected CHO-K1 cells, anti-human IgG-FITC, GeoMFI
T1 construct: also called rhCD122 on cells
T1 sequence: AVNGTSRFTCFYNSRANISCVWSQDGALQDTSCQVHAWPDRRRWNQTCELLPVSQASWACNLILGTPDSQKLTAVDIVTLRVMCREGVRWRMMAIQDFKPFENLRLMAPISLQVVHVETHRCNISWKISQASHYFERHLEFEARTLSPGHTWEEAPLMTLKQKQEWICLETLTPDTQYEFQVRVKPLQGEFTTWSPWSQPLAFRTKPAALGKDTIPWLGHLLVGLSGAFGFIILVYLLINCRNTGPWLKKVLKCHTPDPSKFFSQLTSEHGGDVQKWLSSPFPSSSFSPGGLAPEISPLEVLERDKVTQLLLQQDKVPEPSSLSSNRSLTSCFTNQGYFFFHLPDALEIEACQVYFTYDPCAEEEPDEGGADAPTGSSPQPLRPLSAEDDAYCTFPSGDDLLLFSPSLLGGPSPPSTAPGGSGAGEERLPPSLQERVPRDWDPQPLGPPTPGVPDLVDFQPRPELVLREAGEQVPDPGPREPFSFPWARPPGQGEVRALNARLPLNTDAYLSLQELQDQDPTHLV
Description: (§1) Purified IgGs were tested in FACs for binding to human and rhesus CD122 expressed on CHO-K1 stable cell lines and CHO-K1 wild-type cells. The IgG samples were titrated in three-fold serial dilutions starting at 500 nM to […]. Binding of IgGs was detected with a mouse anti-human IgG conjugated to FITC. Results were analyzed by examining the Mean Fluorescence Intensity (MFI) of 10000 cells per sample in the BL-1 channel detector of a flow cytometer (AttuneTM NxT Acoustic Focusing Cytometer, Invitrogen/ ThermoFisher Scientific).

Neudesin = target: T2, Neudesin (human, UniProt Q9UMX5 32-172); test: Retrogenix cell microarray
T2 construct: whole, on cells; Secreted protein; the tether is not described; also called NENF; neudesin neurotrophic factor (on transfected cells)
T2 sequence (Q9UMX5 32-172): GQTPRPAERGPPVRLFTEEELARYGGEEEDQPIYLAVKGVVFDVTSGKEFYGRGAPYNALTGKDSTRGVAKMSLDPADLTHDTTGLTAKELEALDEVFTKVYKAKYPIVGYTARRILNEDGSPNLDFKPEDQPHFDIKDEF

CILP2 = target: T3, CILP2 (human, UniProt Q8IUL8 21-1156); test: Retrogenix cell microarray
T3 construct: whole, on cells; Secreted protein; tether not described; also called cartilage intermediate layer protein 2 (on transfected cells)
T3 sequence (looked up): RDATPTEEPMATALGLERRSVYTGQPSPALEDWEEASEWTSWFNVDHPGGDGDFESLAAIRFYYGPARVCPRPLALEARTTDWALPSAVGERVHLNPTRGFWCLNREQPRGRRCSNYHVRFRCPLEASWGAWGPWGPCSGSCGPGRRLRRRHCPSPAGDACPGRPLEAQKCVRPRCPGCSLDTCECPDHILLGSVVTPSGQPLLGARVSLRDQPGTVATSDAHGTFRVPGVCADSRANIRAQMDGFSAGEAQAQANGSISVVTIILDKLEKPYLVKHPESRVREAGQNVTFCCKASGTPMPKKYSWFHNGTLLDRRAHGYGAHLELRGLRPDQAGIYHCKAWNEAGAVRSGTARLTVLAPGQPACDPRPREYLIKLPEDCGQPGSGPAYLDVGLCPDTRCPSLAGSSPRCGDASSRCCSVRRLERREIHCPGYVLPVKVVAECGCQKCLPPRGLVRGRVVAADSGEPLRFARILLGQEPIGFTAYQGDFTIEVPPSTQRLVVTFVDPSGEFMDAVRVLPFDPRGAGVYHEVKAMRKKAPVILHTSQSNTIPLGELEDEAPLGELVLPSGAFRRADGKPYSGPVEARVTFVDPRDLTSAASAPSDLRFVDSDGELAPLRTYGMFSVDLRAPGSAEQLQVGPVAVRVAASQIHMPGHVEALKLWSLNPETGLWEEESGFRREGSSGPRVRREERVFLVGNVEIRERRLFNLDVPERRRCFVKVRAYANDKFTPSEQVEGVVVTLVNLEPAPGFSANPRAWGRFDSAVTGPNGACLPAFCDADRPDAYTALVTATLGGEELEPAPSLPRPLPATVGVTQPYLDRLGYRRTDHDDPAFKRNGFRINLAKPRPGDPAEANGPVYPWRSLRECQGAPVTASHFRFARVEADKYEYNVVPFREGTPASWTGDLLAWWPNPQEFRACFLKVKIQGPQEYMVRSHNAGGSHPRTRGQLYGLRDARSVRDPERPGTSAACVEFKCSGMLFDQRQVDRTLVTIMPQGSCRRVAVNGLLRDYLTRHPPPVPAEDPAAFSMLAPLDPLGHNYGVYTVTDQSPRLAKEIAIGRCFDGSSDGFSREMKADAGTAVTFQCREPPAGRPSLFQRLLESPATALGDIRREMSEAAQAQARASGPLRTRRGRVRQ

Rhesus CD122 [2] = target: T1, Rhesus CD122; test: flow cytometry (FACS) on rhIL15Rβ-transfected CHO-K1 cells, anti-human IgG-FITC, GeoMFI; remark: listed apart in the source
Description: as §1

Rhesus CD122 [3] = target: T1, Rhesus CD122; test: as above; remark: listed apart in the source
Description: as §1

[4] = target: T4, Human CD122 human Fc tagged recombinant protein (human, UniProt P14784 27-240); test: Alphascreen epitope competition: unlabelled VillMAb-1 at log10 -1.9 to 2 nM against VillMab-1 binding to human CD122-Fc (self-competition); CPS (crosstalk-corrected)
T4 construct: also called human CD122-Fc; not shown: human Fc tag
T4 sequence: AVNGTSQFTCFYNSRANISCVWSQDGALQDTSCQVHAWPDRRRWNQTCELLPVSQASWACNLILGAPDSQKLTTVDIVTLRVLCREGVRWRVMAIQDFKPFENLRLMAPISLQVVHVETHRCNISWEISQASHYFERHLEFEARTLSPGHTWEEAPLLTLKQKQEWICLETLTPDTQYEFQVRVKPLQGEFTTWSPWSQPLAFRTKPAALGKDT

EC50 (read off the curve) (Rhesus CD122 [1]): ~0.6 nM
binding result (Neudesin): no binding
binding result (CILP2): no binding
EC50 (read off the curve) (Rhesus CD122 [2]): ~0.7 nM
EC50 (read off the curve) (Rhesus CD122 [3]): ~0.6 nM
IC50 (read off the curve) [4]: ~2 nM
B1: IgG1-MIKβ1 (humanized) (antibody, V domains shown)
VH: EVQLLESGGGLVQPGGSLRLSCAASGFSVTSYGVHWIRQAPGKGLEWLGVIWSGGSTDYNAAFISRLTISKDNSKNTVYFQMNSLQAEDTAIYYCARAGDYNYDGFAYWGQGTLVTVSS
VL: DIVLTQSPSSLSASVGDRVTITCSGSSSVSFMYWYQQRPGKAPRLLIYDTSNLASGVPSRFSGSGSGTSYTFTISSLQPEDIATYYCQQWSTYPLTFGQGTKVEVK
notes: also called VillMab-1; VillMAB-1
